B1: NtCPIP2a (DnaJ-like protein from Nicotiana tabacum), Gal4 activation domain fusion (other)
chain: MGLDYYNVLKVSRNASEEDLKRSYKRLAMKWHPDKNSQNKKEAEAKFKQISEAYDVLSDPQKRQIYDVYGDDALKSGQFASASPTSAGSNARGFRFNTRDAEAIFAEFFGGSGSNSGAGVGRKAAPVENKLPCSLEELYKGSRRKMKISRILLDDSGKPTTVEEVLAIHIKPGWKKGTKITFPEKGNYEPGATPGDLIFVIDEKPHAVFKRDGNDLEINQKISLLDALTGKTISLITLDGRELTIPITDIVKPGHEHIIPNEGMPISKERGKKGNLKIKFDIKFPSRLSADQKSDIRRVLCRSAD
B2: NtCPIP2b (DnaJ-like protein from Nicotiana tabacum), Gal4 activation domain fusion (other)
chain: MGLDYYDVLKVSRNASEEDLKRSYKRLAMKWHPDKNSQNKKEAEAKFKQISEAYDVLSDPQKRQIYDVYGDDALKSGQFASASPTSAGSNGRGFRFNTRDAEAIFAEFFGGSDSNSAAGVGRKAAPVENKLPCSLEELYKGSRRKMKISRILLDDSGKPTTVEEVLAIHIKPGWKKGTKITFPEKGNYEPGATPGDLIFVIDEKPHAVFKRDGNDLVINQKISLLDALTGKTISLITLDGRELTIPITDVVKPGHEHIIPNEGMPISKERGKKGNLKIKFDIKFPSRLSADQKSDIRRVLCRNSD
B3: SNF4 fused with the Gal4 activation domain (pAD-SNF4) (other)
chain: MKPTQDSQEKVSIEQQLAVESIRKFLNSKTSYDVLPVSYRLIVLDTSLLVKKSLNVLLQNSIVSAPLWDSKTSRFAGLLTTTDFINVIQYYFSNPDKFELVDKLQLDGLKDIERALGVDQLDTASIHPSRPLFEACLKMLESRSGRIPLIDQDEETHREIVVSVLTQYRILKFVALNCRETHFLKIPIGDLNIITQDNMKSCQMTTPVIDVIQMLTQGRVSSVPIIDENGYLINVYEAYDVLGLIKGGIYNDLSLSVGEALMRRSDDFEGVYTCTKNDKLSTIMDNIRKARVHRFFVVDDVGRLVGVLTLSDILKYILLGSN
B4: NtCPIP1 (DnaJ-like protein from Nicotiana tabacum) fused with the Gal4 activation domain (other)
chain: MGVDYYKILKVSRNASEEDLKKSYKRLAMKWHPDKNSEKEAEAKFKQISEAYDVLSDPQKRQIYDIYGDEALKSGQFDPSSPMNGNGRGFKFDSRDAEDIFAEFFGGSDGYSRSPTGGTVRIRKPAPVENKLPCSLEELYKGSKRKMKISRIVLDVTGKPTTIEEVLAIHIKPGWKKGTKITFPEKGNHEPGAAPGDLIFVIDEKPHDVFKRDGNDLVINQKISLVDALSGKIINLATLDGRELTIPITDVVKPGHEQIIADEGMPISKEPGKKGNLRIKFEVKFPSRLSSDQKLDIRRVLGRTVD
notes: also called pAD-CPIP1
B5: NtCPIP2a Δ94N, Gal4 activation domain fusion (other)
chain: RFNTRDAEAIFAEFFGGSGSNSGAGVGRKAAPVENKLPCSLEELYKGSRRKMKISRILLDDSGKPTTVEEVLAIHIKPGWKKGTKITFPEKGNYEPGATPGDLIFVIDEKPHAVFKRDGNDLEINQKISLLDALTGKTISLITLDGRELTIPITDIVKPGHEHIIPNEGMPISKERGKKGNLKIKFDIKFPSRLSADQKSDIRRVLCRSAD
B6: NtCPIP2a Δ119N, Gal4 activation domain fusion (other)
chain: VGRKAAPVENKLPCSLEELYKGSRRKMKISRILLDDSGKPTTVEEVLAIHIKPGWKKGTKITFPEKGNYEPGATPGDLIFVIDEKPHAVFKRDGNDLEINQKISLLDALTGKTISLITLDGRELTIPITDIVKPGHEHIIPNEGMPISKERGKKGNLKIKFDIKFPSRLSADQKSDIRRVLCRSAD
B7: NtCPIP1 Δ115N, Gal4 activation domain fusion (other)
chain: TGGTVRIRKPAPVENKLPCSLEELYKGSKRKMKISRIVLDVTGKPTTIEEVLAIHIKPGWKKGTKITFPEKGNHEPGAAPGDLIFVIDEKPHDVFKRDGNDLVINQKISLVDALSGKIINLATLDGRELTIPITDVVKPGHEQIIADEGMPISKEPGKKGNLRIKFEVKFPSRLSSDQKLDIRRVLGRTVD

Key:
[1] = molecular target: Tobacco vein mottling virus capsid protein (TVMV CP), Gal4 binding domain fusion (Tobacco vein mottling virus, UniProt P04386 1-147; P09814 2759-3023); test: yeast two-hybrid, HIS3 and lacZ reporters
[2] = molecular target: T1, Potato virus Y capsid protein (PVY CP) fused with the Gal4 binding domain (Potato virus Y (N strain), UniProt P04386 1-147; P18247 2797-3063); test: yeast two-hybrid, lacZ activity
T1 construct: also called pGBT9-PVY CP; PVY envelope protein

[3] = molecular target: T2, SNF1 fused with the Gal4 binding domain (pBD-SNF1) (UniProt P04386 1-147; P06782 1-633); test: yeast two-hybrid, lacZ activity
T2 construct: Control plasmid, bought

[4] = molecular target: T3, Gal4 binding domain alone (pGBT1) (UniProt P04386 1-147); test: yeast two-hybrid, lacZ activity
T3 construct: Control

[5] = molecular target: T1, Potato virus Y capsid protein (PVY CP) …; test: yeast two-hybrid, lacZ reporter

Binder | binding result [1] | binding result [5] | further results
B1 | no binding |  | 
B2 | no binding |  | 
B3 |  |  | binding result [2]: no binding
B4 | no binding |  | binding result [3]: no binding; binding result [4]: no binding
B5 |  | no binding | 
B6 |  | no binding | 
B7 |  | no binding | 
